Measurements reported in US20240353401, “Compositions and methods for detecting SARS-CoV-2 spike protein” (UNICORNFISH PTY LTD AS TRUSTEE FOR RCX UNIT TRUST, published 2024).

B1: DNA aptamer 7 (ssDNA)
DNA: CAGCACCGACCTTGTGCTTTGGGAGTGCTGGTCCAAGGGCGTTAATGGACA
B2: DNA aptamer 3 (ssDNA)
DNA: ATCCAGAGTGACGCAGCACTGCGTAGGCGCGGCCAATGTGTAGGATTGCTCAGGTCTGCTGGACACGGTGGCTTAGT
B3: DNA aptamer 6 (ssDNA)
DNA: ATCCAGAGTGACGCAGCAGTAGGGGGATTGGCTCCAGGGCCTGGCTGACGGTTGCACGTGGACACGGTGGCTTAGT
B4: DNA aptamer 5 (ssDNA)
DNA: ATCCAGAGTGACGCAGCAGGACTGCTTAGGATTGCGAAGCTGAGGAGCTCCCCCGCCTTGGACACGGTGGCTTAGT
B5: DNA aptamer 4 (ssDNA)
DNA: ATCCAGAGTGACGCAGCATTTCATCGGGTCCAAAAGGGGCTGCTCGGGATTGCGGATATGGACACGGTGGCTTAGT
B6: DNA aptamer 2 (ssDNA)
DNA: ATCCAGAGTGACGCAGCATCGAGTGGTGGGCTGGTCGGGTTTGGATTCCCTTAGATGCTGGACACGGTGGCTTAGT
B7: DNA aptamer 8 (ssDNA)
DNA: ATCCAGAGTGACGCAGCATTTCATCGGGTCCAAAAGGGGCTGCTCGGGATTGCGGATATGGACACGT

How the values were obtained:
HCoV-229E spike protein = HCoV-229E spike protein (Human coronavirus 229E, UniProt P15423 P15423:16-1115)
Chain of HCoV-229E spike protein (P15423 16-1115, one chain of several): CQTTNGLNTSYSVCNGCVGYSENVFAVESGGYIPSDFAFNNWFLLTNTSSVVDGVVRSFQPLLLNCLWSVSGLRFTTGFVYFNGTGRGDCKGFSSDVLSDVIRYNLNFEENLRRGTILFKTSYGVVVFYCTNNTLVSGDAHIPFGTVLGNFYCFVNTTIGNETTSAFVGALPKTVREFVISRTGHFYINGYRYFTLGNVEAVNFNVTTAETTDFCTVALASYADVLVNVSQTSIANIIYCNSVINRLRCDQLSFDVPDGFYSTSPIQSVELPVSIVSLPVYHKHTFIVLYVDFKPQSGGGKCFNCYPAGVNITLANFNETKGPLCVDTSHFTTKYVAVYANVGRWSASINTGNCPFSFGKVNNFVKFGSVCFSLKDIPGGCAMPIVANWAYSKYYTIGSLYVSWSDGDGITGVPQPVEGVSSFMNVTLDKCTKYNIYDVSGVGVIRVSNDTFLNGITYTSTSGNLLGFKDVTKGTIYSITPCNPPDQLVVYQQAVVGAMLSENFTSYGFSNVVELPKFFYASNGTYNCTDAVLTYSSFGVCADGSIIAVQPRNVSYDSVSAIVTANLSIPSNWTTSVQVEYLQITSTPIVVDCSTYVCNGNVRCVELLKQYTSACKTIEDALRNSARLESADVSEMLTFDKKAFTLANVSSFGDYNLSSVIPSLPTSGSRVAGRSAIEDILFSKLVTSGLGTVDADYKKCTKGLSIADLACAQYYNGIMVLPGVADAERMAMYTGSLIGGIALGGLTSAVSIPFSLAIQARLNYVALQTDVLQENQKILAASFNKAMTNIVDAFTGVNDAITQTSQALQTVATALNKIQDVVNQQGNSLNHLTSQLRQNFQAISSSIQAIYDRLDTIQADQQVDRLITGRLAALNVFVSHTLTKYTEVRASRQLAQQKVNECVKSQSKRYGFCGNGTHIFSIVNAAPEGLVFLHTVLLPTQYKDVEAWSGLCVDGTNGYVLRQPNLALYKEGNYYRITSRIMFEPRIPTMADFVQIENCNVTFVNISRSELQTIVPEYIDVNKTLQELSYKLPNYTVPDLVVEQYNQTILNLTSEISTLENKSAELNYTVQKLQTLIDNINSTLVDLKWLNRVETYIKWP

HCoV-NL63 spike protein = HCoV-NL63 spike protein (Human coronavirus NL63, UniProt Q6Q1S2 Q6Q1S2:19-1296)
Chain of HCoV-NL63 spike protein (Q6Q1S2 19-1296, one chain of several): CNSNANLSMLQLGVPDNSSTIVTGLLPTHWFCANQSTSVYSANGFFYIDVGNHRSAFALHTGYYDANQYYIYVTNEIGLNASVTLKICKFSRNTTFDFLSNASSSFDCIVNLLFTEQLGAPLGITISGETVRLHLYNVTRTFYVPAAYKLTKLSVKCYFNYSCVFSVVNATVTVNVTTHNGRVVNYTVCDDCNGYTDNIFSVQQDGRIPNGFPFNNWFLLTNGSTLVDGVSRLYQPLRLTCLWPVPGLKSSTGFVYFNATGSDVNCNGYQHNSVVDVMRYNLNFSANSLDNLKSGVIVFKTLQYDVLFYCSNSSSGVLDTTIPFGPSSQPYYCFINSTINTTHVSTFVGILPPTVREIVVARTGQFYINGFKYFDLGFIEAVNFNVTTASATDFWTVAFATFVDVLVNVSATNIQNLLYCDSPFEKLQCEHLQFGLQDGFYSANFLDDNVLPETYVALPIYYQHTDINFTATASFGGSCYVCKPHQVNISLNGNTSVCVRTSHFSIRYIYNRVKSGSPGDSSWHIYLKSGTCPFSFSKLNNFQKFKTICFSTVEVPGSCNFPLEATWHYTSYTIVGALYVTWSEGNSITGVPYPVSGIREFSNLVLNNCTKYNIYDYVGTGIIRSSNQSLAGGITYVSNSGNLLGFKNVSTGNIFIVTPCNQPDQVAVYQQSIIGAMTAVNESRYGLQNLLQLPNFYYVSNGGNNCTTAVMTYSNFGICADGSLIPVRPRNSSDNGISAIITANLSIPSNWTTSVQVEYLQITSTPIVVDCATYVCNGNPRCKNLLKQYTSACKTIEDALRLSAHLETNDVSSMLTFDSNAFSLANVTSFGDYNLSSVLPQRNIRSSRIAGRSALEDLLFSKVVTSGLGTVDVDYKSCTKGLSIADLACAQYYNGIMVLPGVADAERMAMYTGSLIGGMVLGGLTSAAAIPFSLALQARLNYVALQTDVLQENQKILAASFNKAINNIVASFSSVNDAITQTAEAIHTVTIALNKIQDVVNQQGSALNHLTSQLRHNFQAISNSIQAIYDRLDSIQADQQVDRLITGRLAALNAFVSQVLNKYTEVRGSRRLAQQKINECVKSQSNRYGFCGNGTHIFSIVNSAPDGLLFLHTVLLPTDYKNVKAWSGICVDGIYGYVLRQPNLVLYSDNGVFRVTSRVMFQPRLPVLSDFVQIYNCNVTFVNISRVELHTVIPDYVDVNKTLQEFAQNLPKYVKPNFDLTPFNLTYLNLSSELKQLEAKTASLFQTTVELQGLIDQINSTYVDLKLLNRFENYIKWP

SARS-CoV-2 spike protein = SARS-CoV-2 spike protein (SARS-CoV-2, UniProt P0DTC2 P0DTC2:14-1213); experiment: cell-based or functional assay

Row | Binder | binding result (HCoV-229E spike protein) | binding result (HCoV-NL63 spike protein) | activity (SARS-CoV-2 spike protein) [nM]
1 | B1 | no binding | no binding | –
2 | B2 | – | – | 10
3 | B3 | – | – | 7.8
4 | B4 | – | – | 9.7
5 | B5 | – | – | 9
6 | B6 | – | – | 8
7 | B7 | – | – | 8.9
